Experimental data as given in patent publication US20100098708A1.
Several values for one entry are separate records, joined by “and”; a condition that tells them apart may be missing. Identical values can stand only once.

Target: RSV F protein (immobilised antigen of Example 6.1) (respiratory syncytial virus)
Experiment: BIAcore

RSV F protein (immobilised antigen of Example 6.1) (respiratory syncytial virus), sequence (P03420 26-524): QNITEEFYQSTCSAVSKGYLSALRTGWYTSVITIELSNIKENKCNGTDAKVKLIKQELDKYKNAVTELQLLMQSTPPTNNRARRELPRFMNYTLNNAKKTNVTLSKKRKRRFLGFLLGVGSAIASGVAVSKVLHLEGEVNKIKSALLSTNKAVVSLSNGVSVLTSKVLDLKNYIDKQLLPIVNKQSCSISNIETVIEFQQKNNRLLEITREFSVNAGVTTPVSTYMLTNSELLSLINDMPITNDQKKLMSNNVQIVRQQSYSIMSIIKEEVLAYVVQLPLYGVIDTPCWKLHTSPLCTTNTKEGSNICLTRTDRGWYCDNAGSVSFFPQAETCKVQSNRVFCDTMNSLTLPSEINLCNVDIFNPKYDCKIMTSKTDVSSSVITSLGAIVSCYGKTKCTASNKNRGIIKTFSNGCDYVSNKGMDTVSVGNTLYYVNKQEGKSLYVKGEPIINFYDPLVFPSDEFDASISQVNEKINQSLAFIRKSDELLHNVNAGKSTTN

Row | Binder | koff | kon
1 | H3-3F4 Fab (Fab, V domains shown) VH: QVTLRESGPALVKPTQTLTLTCTFSGFSLSTAGMSVGWIRQPPGKALEWLADIWWDDKKDYNPSLKSRLTISKDTSKNQVVLKVTNMDPADTATYYCARDMIFNWYFDVWGQGTTVTVSS VL: DIQMTQSPSTLSASVGDRVTITCSASSSVGYMHWYQQKPGKAPKLLIYDTFKLASGVPSRFSGSGSGTEFTLTISSLQPDDFATYYCFQGSGYPFTFGGGTKVEIK | 0.000445 s⁻¹ and 0.000402 s⁻¹ | –
2 | L1-7E5 Fab (Fab, V domains shown) VH: QVTLRESGPALVKPTQTLTLTCTFSGFSLSTAGMSVGWIRQPPGKALEWLADIWWDDKKDYNPSLKSRLTISKDTSKNQVVLKVTNMDPADTATYYCARDMITNFYFDVWGQGTTVTVSS VL: DIQMTQSPSTLSASVGDRVTITCSASSRVGYMHWYQQKPGKAPKLLIYDTFKLASGVPSRFSGSGSGTEFTLTISSLQPDDFATYYCFQGSGYPFTFGGGTKVEIK | 0.000192 s⁻¹ and 0.000331 s⁻¹ and 0.000229 s⁻¹ | –
3 | DG (aka D95/G93) Fab (Fab, V domains shown) VH: QVTLRESGPALVKPTQTLTLTCTFSGFSLSTAGMSVGWIRQPPGKALEWLADIWWDDKKDYNPSLKSRLTISKDTSKNQVVLKVTNMDPADTATYYCARDMITNFYFDVWGQGTTVTVSS VL: DIQMTQSPSTLSASVGDRVTITCSASSSVGYMHWYQQKPGKAPKLLIYDTFKLASGVPSRFSGSGSGTEFTLTISSLQPDDFATYYCFQGSGYPFTFGGGTKVEIK | 0.000167 s⁻¹ and 0.000444 s⁻¹ | –
4 | P12f4 Fab (Fab, V domains shown) VH: QVTLRESGPALVKPTQTLTLTCTFSGFSLSTPGMSVGWIRQPPGKALEWLADIWWDGKKHYNPSLKDRLTISKDTSKNQVVLKVTNMDPADTATYYCARDMIFNFYFDVWGQGTTVTVSS VL: DIQMTQSPSTLSASVGDRVTITCSLSSRVGYMHWYQQKPGKAPKLLIYDTRGLPSGVPSRFSGSGSGTEFTLTISSLQPDDFATYYCFQGSGYPFTFGGGTKVEIK | 0.000299 s⁻¹ | 527000 M⁻¹ s⁻¹

Now from value to binder:

Row | koff | kon | Binder
5 | 0.000338 s⁻¹ | 605000 M⁻¹ s⁻¹ | M3H9 Fab (Fab, V domains shown) VH: QVTLRESGPALVKPTQTLTLTCTFSGFSLSTAGMSVGWIRQPPGKALEWLADIWWDDKKDYNPSLKSRLTISKDTSKNQVVLKVTNMDPADTATYYCARDMIFNWYFDVWGQGTTVTVSS VL: DIQMTQSPSTLSASVGDRVTITCSASSSVGYMHWYQQKPGKAPKLLIYDTYKQTSGVPSRFSGSGSGTEFTLTISSLQPDDFATYYCFQGSGYPFTFGGGTKVEIK
6 | 0.000178 s⁻¹ and 0.000473 s⁻¹ | 314000 M⁻¹ s⁻¹ and 444000 M⁻¹ s⁻¹ | 6H8 Fab (Fab, V domains shown) VH: QVTLRESGPALVKPTQTLTLTCTFSGFSLSTAGMSVGWIRQPPGKALEWLADIWWDDKKDYNPSLKSRLTISKDTSKNQVVLKVTNMDPADTATYYCARDMITNFYFDVWGQGTTVTVSS VL: DIQMTQSPSTLSASVGDRVTITCSASSSVGYMHWYQQKPGKAPKLLIYDTFKLTSGVPSRFSGSGSGTEFTLTISSLQPDDFATYYCFQGSGYPFTFGGGTKVEIK
7 | 0.000462 s⁻¹ | 757000 M⁻¹ s⁻¹ | Y10H6 Fab (Fab, V domains shown) VH: QVTLRESGPALVKPTQTLTLTCTFSGFSLSTAGMSVGWIRQPPGKALEWLADIWWDDKKDYNPSLKSRLTISKDTSKNQVVLKVTNMDPADTATYYCARDMIFNWYFDVWGQGTTVTVSS VL: DIQMTQSPSTLSASVGDRVTITCSASSSVGYMHWYQQKPGKAPKLLIYDTRYLSSGVPSRFSGSGSGTEFTLTISSLQPDDFATYYCFQGSGYPFTFGGGTKVEIK
